Data from PMC7170535.

Tests used:
[1] = molecular target: recombinant inter-α-inhibitor heavy chain 1 (rHC1), wild type (human) (UniProt P19827); assay: SPR; 1,500 RU rHC1 proteins immobilised on a C1 chip by amide cross-linking; ligand as analyte; HEPES-buffered saline pH 7.5, 0.05% Tween 20, 10 mM EDTA; 50 μl/min; multicycle kinetics, 1:1 Langmuir
[2] = molecular target: recombinant inter-α-inhibitor heavy chain 1 (rHC1), wild type (human) (UniProt P19827); assay: SPR; 1,500 RU rHC1 proteins immobilised on a C1 chip by amide cross-linking; ligand as analyte; HEPES-buffered saline pH 7.5, 0.05% Tween 20, 2 mM Mg2+, 2 mM Mn2+; 50 μl/min; multicycle kinetics, 1:1 Langmuir
[3] = molecular target: recombinant inter-α-inhibitor heavy chain 1 (rHC1), D298A MIDAS mutant (human) (UniProt P19827); assay: as above
Sequence of recombinant inter-α-inhibitor heavy chain 1 (rHC1), D298A MIDAS mutant (human) (P19827 35-672 D298A): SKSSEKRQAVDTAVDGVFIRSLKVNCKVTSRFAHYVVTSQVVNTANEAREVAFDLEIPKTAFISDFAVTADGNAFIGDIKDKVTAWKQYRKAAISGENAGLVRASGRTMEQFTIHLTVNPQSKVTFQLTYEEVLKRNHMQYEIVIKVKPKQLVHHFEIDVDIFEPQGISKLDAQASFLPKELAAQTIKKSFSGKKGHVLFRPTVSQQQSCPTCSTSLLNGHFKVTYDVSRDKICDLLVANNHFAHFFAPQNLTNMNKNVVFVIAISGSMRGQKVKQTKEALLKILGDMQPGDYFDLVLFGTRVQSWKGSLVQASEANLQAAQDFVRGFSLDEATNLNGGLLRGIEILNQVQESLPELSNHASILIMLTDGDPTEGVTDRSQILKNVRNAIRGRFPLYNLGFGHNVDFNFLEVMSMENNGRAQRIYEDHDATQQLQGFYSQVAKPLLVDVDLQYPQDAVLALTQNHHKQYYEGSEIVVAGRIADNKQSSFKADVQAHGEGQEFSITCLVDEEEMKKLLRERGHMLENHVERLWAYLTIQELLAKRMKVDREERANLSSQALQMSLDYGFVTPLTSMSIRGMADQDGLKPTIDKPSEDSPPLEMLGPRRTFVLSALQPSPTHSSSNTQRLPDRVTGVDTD

complement C3 (human) = assay: SPR; ~2,000 RU C3 immobilised on a CM5 chip by amide coupling; rHC1 or IαI as analyte; HEPES-buffered saline pH 7.5, 0.05% Tween 20, 2 mM Mg2+, 2 mM Mn2+; multicycle kinetics, 1:1 Langmuir

Sequence of recombinant inter-α-inhibitor heavy chain 1 (rHC1), wild type (human) (P19827 35-672): as the sequence (P19827 35-672 D298A) above, with A264D counted along it
Sequence of LTBP1 N-terminal region (NT1), recombinant domain (domain or fragment) (Q14766 24-1721): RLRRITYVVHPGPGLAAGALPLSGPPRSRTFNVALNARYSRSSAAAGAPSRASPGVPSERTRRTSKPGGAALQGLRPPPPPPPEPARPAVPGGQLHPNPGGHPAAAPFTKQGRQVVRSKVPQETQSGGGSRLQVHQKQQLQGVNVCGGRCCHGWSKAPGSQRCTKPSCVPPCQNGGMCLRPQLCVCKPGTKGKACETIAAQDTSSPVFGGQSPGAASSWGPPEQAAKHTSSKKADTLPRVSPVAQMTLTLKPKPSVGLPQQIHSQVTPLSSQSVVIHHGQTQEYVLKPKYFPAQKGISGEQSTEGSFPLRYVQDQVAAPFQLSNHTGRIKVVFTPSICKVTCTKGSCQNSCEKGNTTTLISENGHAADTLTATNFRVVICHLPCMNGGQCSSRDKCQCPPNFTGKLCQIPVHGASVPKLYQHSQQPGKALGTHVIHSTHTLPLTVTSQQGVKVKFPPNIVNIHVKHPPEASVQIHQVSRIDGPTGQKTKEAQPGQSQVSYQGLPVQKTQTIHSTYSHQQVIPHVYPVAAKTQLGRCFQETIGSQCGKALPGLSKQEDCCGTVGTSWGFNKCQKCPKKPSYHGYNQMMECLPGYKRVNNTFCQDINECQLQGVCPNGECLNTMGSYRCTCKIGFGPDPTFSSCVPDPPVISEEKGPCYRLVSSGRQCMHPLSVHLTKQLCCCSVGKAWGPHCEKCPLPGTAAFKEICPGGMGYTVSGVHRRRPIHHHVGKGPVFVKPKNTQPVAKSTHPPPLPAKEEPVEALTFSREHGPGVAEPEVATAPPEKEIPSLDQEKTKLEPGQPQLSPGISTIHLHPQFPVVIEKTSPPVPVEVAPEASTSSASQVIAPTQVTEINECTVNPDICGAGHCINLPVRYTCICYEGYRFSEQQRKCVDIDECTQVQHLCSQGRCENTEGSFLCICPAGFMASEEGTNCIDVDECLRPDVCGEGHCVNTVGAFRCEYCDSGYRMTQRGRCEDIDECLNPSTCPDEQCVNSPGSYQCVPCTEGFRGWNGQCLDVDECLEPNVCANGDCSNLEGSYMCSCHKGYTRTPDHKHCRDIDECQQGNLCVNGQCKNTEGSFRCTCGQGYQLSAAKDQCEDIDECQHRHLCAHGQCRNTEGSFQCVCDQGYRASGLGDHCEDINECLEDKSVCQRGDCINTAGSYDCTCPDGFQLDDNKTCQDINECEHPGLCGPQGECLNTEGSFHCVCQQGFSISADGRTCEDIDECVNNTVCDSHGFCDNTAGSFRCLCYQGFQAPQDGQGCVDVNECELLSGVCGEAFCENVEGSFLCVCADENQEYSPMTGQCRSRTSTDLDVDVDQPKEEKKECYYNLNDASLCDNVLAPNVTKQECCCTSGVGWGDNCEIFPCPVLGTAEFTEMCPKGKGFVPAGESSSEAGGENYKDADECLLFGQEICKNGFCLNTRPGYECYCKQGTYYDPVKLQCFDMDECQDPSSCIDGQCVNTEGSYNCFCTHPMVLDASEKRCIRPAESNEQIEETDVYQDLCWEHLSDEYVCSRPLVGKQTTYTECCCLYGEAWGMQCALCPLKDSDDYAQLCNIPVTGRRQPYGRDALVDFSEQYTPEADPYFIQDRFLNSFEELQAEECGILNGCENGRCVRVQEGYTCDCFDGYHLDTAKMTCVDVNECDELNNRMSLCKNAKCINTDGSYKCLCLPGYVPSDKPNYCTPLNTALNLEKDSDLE

| Kd [1] [nM] | Kd [2] [nM] | Kd [3] [nM] | Kd (complement C3 (human)) [nM] | Substance |
| --- | --- | --- | --- | --- |
| 5.1 | 4.6 |  |  | LTBP1 N-terminal region (NT1), recombinant domain (domain or fragment) |
|  | 16.1 | 14.9 |  | TGFβ1-LAP, small latent complex of TGFβ1 (from UniProt P01137 30-278) |
|  |  |  | 659 | inter-α-inhibitor (IαI) (from UniProt P19827 35-672; P19823 55-702) (complex) |
